Results on 3 molecules are retold here after patent US20220127350A1 (NUMAB THERAPEUTICS, published 2022).

Where a chain is given by its changes, count along the chain named.

For orientation: Kd means the equilibrium constant for the complex coming apart. For orientation: koff means a measure of how fast the partners let go of each other. In general, kon refers to a measure of how fast the partners come together. In general, IC50 refers to the midpoint of a concentration-inhibition curve.

In test [1] the target is T1, cynomolgus monkey IL-17A (Macaca fascicularis (cynomolgus monkey)).
T1 construct: also called cyno IL-17A; cyno IL17A
The experiment in a line: SPR (Biacore T200). In general terms: SPR reads the build-up and loss of mass on a sensor chip optically.
Experimental: (§1) After each analyte injection cycle the CAP sensor chip was regenerated and new antigen was captured. The scFvs were injected as analyte using a dose response multi-cycle kinetic assay with concentrations of the analyte ranging from 0.35 to 90 nM diluted in running buffer. Obtained sensorgrams were fitted using the 1:1 binding model. In addition, the scFvs were analyzed in an alternative SPR assay setup (“direct setup”).

Test [2] has as its target T2, human IL-17A (human, UniProt Q16552 24-155, limits assumed). The experiment in a line: cell-based or functional assay.
Test [3] concerns the target T1, cynomolgus monkey IL-17A. The experiment in a line: SPR (Biacore T200), cynomolgus IL-17A, scFv as analyte.
Experimental: as §1
Test [4] addresses T3, human IL-17C (human, UniProt Q9P0M4 19-197).
T3 sequence: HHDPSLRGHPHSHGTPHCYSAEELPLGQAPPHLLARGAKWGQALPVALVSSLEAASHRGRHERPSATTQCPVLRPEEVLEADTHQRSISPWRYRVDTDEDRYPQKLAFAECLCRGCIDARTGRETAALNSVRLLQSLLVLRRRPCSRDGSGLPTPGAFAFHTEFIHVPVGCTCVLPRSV
The experiment in a line: competition ELISA: scFv coated, biotinylated IL-17A, unlabeled cytokine titrated.
Text: (§2) For this purpose, the scFvs were coated on a 96-well ELISA plate.

In test [5] the target is T4, human IL-17F (human, UniProt Q96PD4 31-163).
T4 construct: Peprotech Cat. No. 200-25 in the direct ELISA
T4 sequence: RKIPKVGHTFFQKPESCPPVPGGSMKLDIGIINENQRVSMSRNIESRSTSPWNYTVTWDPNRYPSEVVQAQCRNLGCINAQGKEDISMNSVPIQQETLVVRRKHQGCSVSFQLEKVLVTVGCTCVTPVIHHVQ
The test is described as above.
Text: as §2

Test [6] concerns the target T2, human IL-17A. The experiment in a line: competitive ELISA: IL-17RA coated, biotinylated IL-17A preincubated with scFv. For orientation: In an ELISA, binding on a coated surface is turned into a signal by an enzyme label.
Experimental: Finally, Tetramethylbenzidin solution (KPL, Cat. No. 53-00-00) was added to develop the plate for 5 to 10 minutes and the reaction was stopped with 1 M HCl. The plate was read using a microtiter plate reader (Infinity reader M200 Pro, Tecan) at a wavelength of 450 nm and 570 nm (reference wavelength).
Test [7] deals with T2, human IL-17A. The experiment in a line: SPR (Biacore T200), direct setup: IL-17A amine-coupled on CM5, scFv as analyte.
Experimental: as §1
The target in test [8] is T2, human IL-17A. The experiment in a line: SPR (Biacore T200), capture setup: biotinylated IL-17A captured, scFv as analyte.
Experimental: as §1
Test [9] deals with T5, human IL-17B (human, UniProt Q9UHF5 21-180).
T5 sequence: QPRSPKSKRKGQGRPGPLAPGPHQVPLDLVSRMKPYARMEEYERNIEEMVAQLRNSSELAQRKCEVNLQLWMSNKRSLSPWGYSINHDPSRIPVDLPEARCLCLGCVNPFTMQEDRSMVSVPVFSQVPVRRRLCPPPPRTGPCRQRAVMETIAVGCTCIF
The test is described as follows: competition ELISA: scFv PRO571 coated, binding of biotinylated IL-17A detected, unlabeled IL-17B titrated as competitor [II) B].
Text: as §2

Test [10] addresses T6, human IL-17D (human, UniProt Q8TAD2 16-202, limits assumed).
T6 sequence: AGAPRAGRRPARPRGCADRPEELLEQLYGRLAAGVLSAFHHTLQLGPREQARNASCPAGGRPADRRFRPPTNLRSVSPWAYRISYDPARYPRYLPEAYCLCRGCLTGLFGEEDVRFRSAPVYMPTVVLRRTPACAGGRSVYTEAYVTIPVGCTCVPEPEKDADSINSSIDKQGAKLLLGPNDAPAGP
The experiment in a line: competition ELISA: scFv PRO571 coated, binding of biotinylated IL-17A detected, unlabeled IL-17D titrated as competitor [II) A].
Text: as §2

Test [11] concerns the target T7, human IL-17E (human, UniProt Q9H293 33-177).
T7 construct: also called IL-25
T7 sequence: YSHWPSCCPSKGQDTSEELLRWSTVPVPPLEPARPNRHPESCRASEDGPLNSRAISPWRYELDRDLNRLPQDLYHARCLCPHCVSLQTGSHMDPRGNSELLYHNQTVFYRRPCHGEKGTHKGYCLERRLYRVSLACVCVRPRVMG
The test is described as follows: competition ELISA: scFv PRO571 coated, binding of biotinylated IL-17A detected, unlabeled IL-17E titrated as competitor [II) A].
Text: as §2

Test [12] deals with T5, human IL-17B. The test is described as follows: competition ELISA: scFv PRO592 coated, binding of biotinylated IL-17A detected, unlabeled IL-17B titrated as competitor [II) D].
Text: as §2
Test [13] has as its target T3, human IL-17C. The experiment in a line: competition ELISA: scFv PRO592 coated, binding of biotinylated IL-17A detected, unlabeled IL-17C titrated as competitor [II) D].
Text: as §2
For test [14], the target named is T6, human IL-17D. The test is described as follows: competition ELISA: scFv PRO592 coated, binding of biotinylated IL-17A detected, unlabeled IL-17D titrated as competitor [II) C].
Text: as §2
Test [15] deals with T7, human IL-17E. The experiment in a line: competition ELISA: scFv PRO592 coated, binding of biotinylated IL-17A detected, unlabeled IL-17E titrated as competitor [II) C].
Text: as §2
The target of test [16] is T4, human IL-17F. The test is described as follows: competition ELISA: scFv PRO592 coated, binding of biotinylated IL-17A detected, unlabeled IL-17F titrated as competitor [II) C].
Text: as §2
The target in test [17] is T5, human IL-17B. The test is described as follows: competition ELISA: scFv A1 coated, binding of biotinylated IL-17A detected, unlabeled IL-17B titrated as competitor [I) B].
Text: as §2
Test [18] concerns the target T3, human IL-17C. The test is described as follows: competition ELISA: scFv A1 coated, binding of biotinylated IL-17A detected, unlabeled IL-17C titrated as competitor [I) B].
Text: as §2
Test [19] addresses T6, human IL-17D. The experiment in a line: competition ELISA: scFv A1 coated, binding of biotinylated IL-17A detected, unlabeled IL-17D titrated as competitor [I) A].
Text: as §2
In test [20] the target is T7, human IL-17E. The experiment in a line: competition ELISA: scFv A1 coated, binding of biotinylated IL-17A detected, unlabeled IL-17E titrated as competitor [I) A].
Text: as §2
Test [21] concerns the target T4, human IL-17F. The test is described as follows: competition ELISA: scFv A1 coated, binding of biotinylated IL-17A detected, unlabeled IL-17F titrated as competitor [I) A].
Text: as §2

B1: PRO571 (humanized anti-IL-17A scFv, CDR graft of 27-31-C04) (scFv)
scFv: DIQMTQSPSSLSASVGDRVTITCQASESIYRYLSWYQQKPGKAPKLLIYLASTLTSGVPSRFSGSGSGTDFTLTISSLQPEDFATYYCQSNFGTASTTYYNTFGGGTKLTVLGGGGGSGGGGSGGGGSGGGGSEVQLVESGGGLVQPGGSLRLSCAASGFSFSGFYYMCWVRQAPGKGLEWIGCIDTGDGTTYYASWAKGRFTISRDNSKNTVYLQMNSLRAEDTAVYYCARDAAYGGYAYPAHGMDLWGQGTLVTVSS
notes: VL-linker-VH; also called 27-31-C04-sc01; 27_31_C04_sc01
B1: in the test with cynomolgus monkey IL-17A [1], the “KD, cyno/KD, human” value is 0.28. In addition, the “IC50 in HT-29 assay, GRO-α secretion” value with human IL-17A [2] worked out at 0.1 ng/mL. Besides, the values for the Kd in the test with cynomolgus monkey IL-17A [3], with human IL-17A [7] and with human IL-17A [8] were 0.0331 nM, 0.0403 nM and 0.119 nM, respectively. Also, the figures for the koff with cynomolgus monkey IL-17A [3], in the test with human IL-17A [7] and in the test with human IL-17A [8] were 3.88e-05 s⁻¹, 4.55e-05 s⁻¹ and 0.000144 s⁻¹, respectively. Further, the kon worked out at 1.17e+06 M⁻¹ s⁻¹ in the test with cynomolgus monkey IL-17A [3], 1.13e+06 M⁻¹ s⁻¹ with human IL-17A [7] and 1.21e+06 M⁻¹ s⁻¹ with human IL-17A [8]. Also, the binding result with human IL-17C [4] is listed as “no binding (tested: 100000 ng/ml)”; in the test with human IL-17F [5] it was “no binding (tested: 20000 ng/ml)”; with human IL-17B [9] it was “no binding (tested: about 100000 ng/mL)”; with human IL-17D [10], “no binding (tested: about 500000 ng/mL)”; with human IL-17E [11], “no binding (tested: about 20000 ng/mL)”. The molecule also registered an IC50 in the test with human IL-17A [6] of 1.8 ng/mL.

B2: PRO592 (humanized anti-IL-17A scFv, STR graft of 27-31-C04) (scFv)
scFv: B1 scFv with R152T, Q251P
notes: VL-linker-VH; also called 27-31-C04-sc02; 27_31_C04_sc02
Turning to B2, the “KD, cyno/KD, human” value in the test with cynomolgus monkey IL-17A [1] is 0.44. In the test with human IL-17A [2], the “IC50 in HT-29 assay, GRO-α secretion” value came out at 0.13 ng/mL. Moreover, the Kd in the test with cynomolgus monkey IL-17A [3] came to 0.16 nM; with human IL-17A [7], 0.0376 nM; in the test with human IL-17A [8] it was 0.367 nM. Further, the koff with cynomolgus monkey IL-17A [3] amounted to 5.38e-05 s⁻¹; in the test with human IL-17A [7], 4.07e-05 s⁻¹; with human IL-17A [8], 0.000142 s⁻¹. The on-rate (kon) was 336000 M⁻¹ s⁻¹ in the test with cynomolgus monkey IL-17A [3], 1.08e+06 M⁻¹ s⁻¹ in the test with human IL-17A [7] and 387000 M⁻¹ s⁻¹ in the test with human IL-17A [8]. In addition, in the test with human IL-17A [6], the IC50 is 0.9 ng/mL. The binding result with human IL-17B [12] is listed as “no binding (tested: about 100000 ng/mL)”; in the test with human IL-17C [13], “no binding (tested: about 100000 ng/mL)”; with human IL-17D [14], “no binding (tested: about 500000 ng/mL)”; with human IL-17E [15], “no binding (tested: about 20000 ng/mL)”; with human IL-17F [16], “no binding (tested: about 20000 ng/mL)”.

B3: A1 (humanized anti-IL-17A scFv, CDR graft of 27-07-G02) (scFv)
scFv: DIQMTQSPSSLSASVGDRVTITCQASQTINYWLAWYQQKPGKAPKLLIYRASTLASGVPSRFSGSGSGTDFTLTISSLQPEDFATYYCQNYYYSTSRSYGFGGGTKLTVLGGGGGSGGGGSGGGGSGGGGSEVQLVESGGGLVQPGGSLRLSCAASGFSFSSDYWMCWVRQAPGKGLEWIGCIYAGDVDDTDYASWARGRFTISRDNSKNTVYLQMNSLRAEDTAVYYCARVDGFDITYFDLWGQGTLVTVSS
notes: VL-linker-VH; also called 27-07-G02-sc01; 27_07_G02_sc01
For B3, in the test with cynomolgus monkey IL-17A [1], the “KD, cyno/KD, human” value was found to be 3.66. The “IC50 in HT-29 assay, GRO-α secretion” value with human IL-17A [2] was 0.2 ng/mL. Moreover, the figures for the Kd with cynomolgus monkey IL-17A [3], with human IL-17A [7] and with human IL-17A [8] were 0.905 nM, 0.139 nM and 0.247 nM, respectively. In addition, the figures for the off-rate constant (koff) with cynomolgus monkey IL-17A [3], in the test with human IL-17A [7] and in the test with human IL-17A [8] were 0.000261 s⁻¹, 0.000102 s⁻¹ and 0.000112 s⁻¹, respectively. For the same molecule, the kon with cynomolgus monkey IL-17A [3] is 288000 M⁻¹ s⁻¹; in the test with human IL-17A [7], 737000 M⁻¹ s⁻¹; with human IL-17A [8], 455000 M⁻¹ s⁻¹. The same molecule displayed an IC50 in the test with human IL-17A [6] of 2 ng/mL. The binding result in the test with human IL-17B [17] was “no binding (tested: about 100000 ng/mL)”; in the test with human IL-17C [18], “no binding (tested: about 100000 ng/mL)”; in the test with human IL-17D [19], “no binding (tested: about 100000 ng/mL on the axis)”; with human IL-17E [20], “no binding (tested: about 20000 ng/mL)”; with human IL-17F [21] it was “no binding (tested: about 20000 ng/mL)”.
